This is an account of results in US20040077547A1, “FVIIa antagonists” (Genentech, Inc., priority 1999, published 2004).

In assay [1] the target is T1, recombinant human FVIIa (Homo sapiens, UniProt P08709).
T1 construct: proteolysis of FVII to FVIIa at a site (Arg152-Ile153 for human FVII (hFVII))
T1 sequence (P08709 61-212 limits assumed): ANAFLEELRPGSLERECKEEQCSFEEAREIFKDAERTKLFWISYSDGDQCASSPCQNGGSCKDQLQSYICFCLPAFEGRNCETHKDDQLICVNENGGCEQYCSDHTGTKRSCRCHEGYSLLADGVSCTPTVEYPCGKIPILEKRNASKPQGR
T1 sequence (P08709 213-466 limits assumed): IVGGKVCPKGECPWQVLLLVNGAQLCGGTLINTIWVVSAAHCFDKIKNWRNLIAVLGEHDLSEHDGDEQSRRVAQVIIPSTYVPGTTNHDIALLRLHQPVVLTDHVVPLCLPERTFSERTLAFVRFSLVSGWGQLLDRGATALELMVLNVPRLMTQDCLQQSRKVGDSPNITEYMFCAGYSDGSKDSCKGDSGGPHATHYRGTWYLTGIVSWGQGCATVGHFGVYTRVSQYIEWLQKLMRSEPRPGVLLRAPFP
Briefly: FVIIa Binding ELISA (competition with TF183b). The conditions noted are these: for affinity for FVIIa: compared with SEQ ID NO: 4. How it is done: FVIIa Binding ELISA—The ability of peptides to compete with biotinylated TF183 (TF183b) (or other peptides described herein that could be biotinylated as described) for binding to FVIIa was monitored using a FVIIa Binding ELISA or a TF-FVIIa Binding ELISA. Microtiter plates were coated overnight with 2 μg/ml recombinant human FVIIa or 2 μg/ml TF1-243 (Paborsky, L. R., et al., J. Biol. Chem. 266: 21911 (1991)) in 50 mM ammonium bicarbonate pH 9 at 4° C.; all other steps were performed at room temperature. Plates were then blocked with 1% BSA in Assay Buffer (50 mM HEPES, pH 7.2, 5 mM CaCl2, 150 mM NaCl). For the TF-FVIIa ELISA, recombinant human FVIIa (2 μg/ml) in 1% BSA in Assay Buffer was added for 30 min to the wells previously coated and blocked with TF to form the TF-FVIIa complex. Dilutions of peptide in Assay Buffer plus 0.05% Tween 20 were added to the microtiter plate along with 5 nM TF183b for 1 h. The microtiter plate was washed 3 times with Assay Buffer plus 0.05% Tween 20 and the biotinylated-peptide bound was detected with a Streptavidin/HRP conjugate (Streptavidin-POD, Roche Molecular Biochemicals). The amount of HRP bound was measured using ABTS/H2O2 substrate (Kirkegaard and Perry Laboratories) and monitoring the absorbance at 405 nm. The absorbance at 405 nm was plotted versus the concentration of peptide originally added to the well. Sigmoidal curves were fit to a four-parameter equation by nonlinear regression analysis (Marquardt, J. Soc. Indust. Appl. Math. 11:431-441 (1963); the concentration of each peptide required to give a half-maximal signal in the assay was calculated from the curves and is referred to as the IC50 value.
On the technique in general: An ELISA detects its analyte on a solid surface through an enzyme-linked reagent.

Another assay addresses T2, TF-FVIIa (Homo sapiens, UniProt P08709).
T2 construct: proteolysis of FVII to FVIIa at a site (Arg152-Ile153 for human FVII (hFVII))
Briefly: FX Activation Assay. It counts as biochemical. The settings on record: compared with SEQ ID NO: 4. Here is the method:
FX Activation Assay—Activation of FX by TF-FVIIa was monitored at room temperature as a function of peptide concentration. Each assay sample contained 100 μl of 460 pM relipidated TF1-243 (Kelley, R. F., et al. Blood 89:3219-3227 (1997)) and 30 pM FVIIa in HBS/Ca buffer (20 mM HEPES, pH 7.4, 5 mM CaCl2, 150 mM NaCl, 0.1% PEG 8000); after 20 min, 25 μl of peptide diluted in HBS/Ca Buffer was added. Following a 30 min incubation the reaction was initiated by the addition of 25 μl of 1 μM FX in HBS/Ca (Note: this yields a final concentration of 306 pM TFPC, 20 pM FVIIa, and 166 nM FX). For kinetic analysis, the final concentration of FX was varied from between 20 and 500 nM. Aliquots of 25 μl were removed at 1, 3, 5, 7 and 9 min and quenched in 25 μl of 50 mM EDTA. The FXa generated in each aliquot could be measured by the addition of 100 μl of 250 μM Spectrozyme fXa (American Diagnostica), 50 mM Tris, pH 8, 50 mM NaCl, 0.0025% Triton X-100. The rate of FXa generated at each peptide concentration was proportional to the initial slope of the absorbance at 405 nm vs. time. Sigmoidal curves were fit to a four-parameter equation by nonlinear regression analysis (Marquardt, J. Soc. Indust. Appl. Math. 11:431-441 (1963)); the concentration of each peptide required to give a half-maximal signal in the assay was calculated from the curves and is referred to as the IC50 value.

The target of another assay is T3, TF-FVIIa complex (Homo sapiens, UniProt P08709).
T3 construct: proteolysis of FVII to FVIIa at a site (Arg152-Ile153 for human FVII (hFVII))
Briefly: Peptide-phage binding to immobilized TF-FVIIa. How it is done: (§1) Selection Conditions—TF1-243 (Paborsky, L. R., et al., J. Biol. Chem. 266: 21911 (1991)) or recombinant human FVIIa (2 μg/ml each) were immobilized directly to Maxisorp plates (Nunc) in 50 mM ammonium bicarbonate, pH 9.3 by incubating overnight at 4° C. Wells were blocked using Sorting Buffer (50 mM HEPES, pH 7.2, 5 mM CaCl2, 5 mM MgCl2, 150 mM NaCl, 1% BSA) for 1 h at 25° C. Recombinant human FVIIa (2 μg/ml) in Sorting Buffer was added for 30 min to wells previously coated and blocked with TF to form the TF-FVIIa complex. Phage from the libraries described above were pooled into 3 groups. Pool A contained XiCXjCXk where j=5-7; Pool B contained X4CX2GPX4CX4, X20 and XiCXjCXk where j=4; Pool E contained XiCXjCXk where j=8-10. Phage from each pool were incubated with the immobilized targets in Sorting Buffer for 3 h at 25° C.; generally about 5×10^10 phage were added at the beginning of each round. Unbound phage were removed by repetitive washing with Wash Buffer (50 mM HEPES, pH 7.2, 150 mM NaCl, 0.005% Tween 20); remaining phage were eluted with 500 mM KCl, 10 mM HCl, pH 2. The eluted phage were then propagated in XL1-Blue cells with VCSM13 helper phage (Stratagene) overnight at 37° C. Enrichment could be monitored by titering the number of phage which bound to a target coated well compare to a well coated with BSA. […]

For assay [2], the target named is T1, recombinant human FVIIa. The experiment in a line: Peptide-phage binding to immobilized FVIIa. The settings on record: polyvalent phage display. How it is done: as §1
The next assay has as its target T4, TF (Homo sapiens, UniProt P13726).
T4 construct: TF1-243 for membrane tissue factor composed of the extracellular domain and transmembrane amino acid residues 1-243
Briefly: Peptide-phage binding to wells coated with TF. The settings on record: polyvalent phage display; also BSA-coated wells. Here is the method:
as §1

The target in a further assay is T5, BSA (bovine, UniProt P02769 25-607).
T5 construct: Control coat
Briefly: phage binding to coated wells.

Where no end group is shown, it is not given here.

T3 sequence (P13726 33-275 partner limits assumed, one chain of several): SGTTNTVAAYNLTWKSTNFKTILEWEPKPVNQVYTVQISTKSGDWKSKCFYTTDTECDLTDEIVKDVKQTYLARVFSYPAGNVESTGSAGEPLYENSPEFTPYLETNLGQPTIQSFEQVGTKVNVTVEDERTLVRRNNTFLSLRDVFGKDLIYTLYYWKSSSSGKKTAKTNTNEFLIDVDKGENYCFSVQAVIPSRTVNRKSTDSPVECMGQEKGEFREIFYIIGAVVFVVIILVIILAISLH
T2 sequence (P13726 33-275 partner limits assumed, one chain of several): as above
T5 sequence (P02769 25-607 limits assumed): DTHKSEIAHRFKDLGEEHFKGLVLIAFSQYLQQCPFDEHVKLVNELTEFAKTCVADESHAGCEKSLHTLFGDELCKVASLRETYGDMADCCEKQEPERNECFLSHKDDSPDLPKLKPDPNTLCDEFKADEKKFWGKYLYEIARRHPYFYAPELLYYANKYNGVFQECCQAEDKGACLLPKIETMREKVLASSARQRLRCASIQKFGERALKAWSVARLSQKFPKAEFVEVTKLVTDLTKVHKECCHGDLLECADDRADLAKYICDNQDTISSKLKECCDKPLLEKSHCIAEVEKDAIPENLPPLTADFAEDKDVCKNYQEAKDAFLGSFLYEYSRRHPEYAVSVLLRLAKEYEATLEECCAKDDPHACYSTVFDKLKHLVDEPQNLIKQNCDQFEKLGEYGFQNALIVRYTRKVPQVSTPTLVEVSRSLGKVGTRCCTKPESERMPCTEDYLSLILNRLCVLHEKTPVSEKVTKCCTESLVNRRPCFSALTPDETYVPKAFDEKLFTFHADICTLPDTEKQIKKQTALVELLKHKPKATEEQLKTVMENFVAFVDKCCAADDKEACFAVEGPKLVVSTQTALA
T4 sequence (P13726 33-275): as the sequence (P13726 33-275 partner limits assumed, one chain of several) above

Regarding EEWEVLCWTWETCER [TF183], the “IC50 for FVIIa” value on recombinant human FVIIa [1] (compared with TF65 (SEQ ID NO: 4), values in FIG. 4, not given) is “decreased IC50”.

Take EEWEVLCWTWETCERGEG [TF100]: the “affinity for FVIIa” value with recombinant human FVIIa [1] is given as “improved affinity”. In the assay with TF-FVIIa, the “ability to inhibit FX activation” value is “increased ability to inhibit FX activation”.

Take SAEWEVLCWTWEGCGSVGLV [TF53]: the “binding to covalently and noncovalently active site blocked TF-FVIIa” value with TF-FVIIa complex (active site alkylated with biotinylated EGR chloromethylketone or blocked by TF7I-C) is recorded as “bound”. Further, in the assay with TF-FVIIa complex (polyvalent phage display), the “binding of phage bearing the sequence to immobilized TF-FVIIa” value is reported as “bound specifically”. For the same molecule, in the assay with recombinant human FVIIa [2], the “binding of phage bearing the sequence to immobilized FVIIa” value is “bound specifically”. For the same molecule, in the assay with TF, the “binding of phage bearing the sequence to wells coated with TF” value is given as “did not bind”.

“TF100Z: TF100 peptide fused to the Z consensus domain of protein A (EEWEVLCWTWETCERGEGGGGSGG)”: the “affinity for FVIIa” value with recombinant human FVIIa [1] is reported as “improved affinity”. Besides, the “ability to inhibit FX activation” value with TF-FVIIa was “increased ability to inhibit FX activation”.

B1: TF53 peptide-phage (polyvalent phage clone from Pool A bearing SAEWEVLCWTWEGCGSVGLV) (peptide)
peptide: SAEWEVLCWTWEGCGSVGLV
modifications: cysteine pairing not given here; also: displayed on phage as a coat-protein fusion
With B1, the binding result with BSA is reported as “no binding”.
